According to patent US8071348B2, “Protein tyrosine phosphatase substrate-trapping double mutant and uses thereof” (Albert Einstein College of Medicine of Yeshiva University, priority 2002, dated 2011):
[ ]: non-standard residue; d: D form. F2Pmp = N[C@@H](Cc1ccc(C(F)(F)P(=O)(O)O)cc1)C(=O)O

Experiments:
EGF receptor [1] = assay: Substrate pull-down: anti-HA immunoprecipitation of PTP1B forms from EGF-treated COS1 cells, anti-pTyr/anti-EGFR blot; format: cell-based, Monkey
Description: FIG. 5 illustrates immunoprecipitation (IP) and Western blots (WB) of the phospho-EGF receptor, and other less abundant PTP1B substrates, by the PTP1B substrate-trapping mutants. Wild-type PTP1B, D181A, D181A/Q262A, D181A/C215S, C215S, or blank vector (pJ3H) was used to transfect COS1 cells (4 μg plasmid/60 mm dish). The cells were maintained at 37° C. for 44-48 h. Twenty minutes before harvesting the cells, 20 ng/ml EGF was added to each dish. The PTP1B proteins were precipitated from the cell lysates using anti-hemagglutinin (anti-HA) antibody-conjugated agarose beads from the cell lysates (500 μg total protein) at 4° C. overnight. The beads were washed 3 times with the lysis buffer, mixed with 2×SDS sample buffer, and then boiled for 5 min. The immunocomplexes were resolved by SDS-PAGE, and transferred onto a nitrocellulose membrane. The membrane was probed with anti-pTyr HRP-conjugated antibody (lower panel). The membrane was then stripped and reblotted with anti-EGFR rabbit polyclonal antibody (middle panel). Thereafter, the membrane was further stripped, and re-probed with anti-HA HRP conjugate (upper panel).
The hemagglutinin-tagged (HA-tagged) full-length human wild-type PTP1B in pJ3H expression vector was a gift from Dr. Chemoff (30). The HA-tagged PTP1B mutants, C215S, D181A, D181A/C215S, and D181A/Q262A, were generated by PCR reactions, according to the standard procedure of the Quick-Change™ site-directed mutagenesis kit (Stratagene), using pJ3H-HA-PTP1B as a template. All mutations were verified by DNA sequencing.
Monkey kidney COS1 cells (ATCC: CRL-1650) were maintained in Dulbecco's modified Eagle's minimum essential medium (DMEM), supplemented with 10% fetal bovine serum (Life Technologies, Inc.), penicillin (50 units/ml), streptomycin (50 μg/ml), and L-glutamine (2 mM) under a humidified atmosphere containing 5% CO2. […] The efficiency of transfection, as assessed by 5-bromo-4-chloro-3-indolyl-β-D galactoside (X-Gal) staining of pCMV-β-gal-transfected (β-Gal staining kit, Invitrogen) COS cells, was 25%. […]

[2] = target: T1, Ac-Asp-Ala-Asp-Glu-F2Pmp-Leu-NH2; assay: ITC
T1 construct: Synthetic hexapeptide printed in three-letter code; also called F2Pmp-containing peptide; non-hydrolyzable substrate analog
T1 peptide: Ac-DADE[F2Pmp]L-NH2
Description: All isothermal titration calorimetry experiments were performed using an MCS Isothermal Titration Calorimetry System from Microcal Inc. (Northampton, Mass.). Experiments at pH 7.0 were conducted at 25° C., in 50 mM 3,3-dimethylglutarate buffer containing 1 mM DTT. The ionic strength of the buffer was adjusted to 0.15 M by addition of NaCl. Protein concentration in the calorimeter cell was 27-85 µM, while the ligand concentration in the syringe was 0.37-1 mM.
A typical titration curve and binding isotherm for the binding of D181A/Q262A to Ac-Asp-Ala-Asp-Glu-F_2Pmp-Leu-NH_2 is shown in FIG. 3. From curve-fitting of the binding isotherms, the stoichiometry for the binding of the peptide to D181A/Q262A was determined to be 1:1.

EGF receptor [3] = assay: Substrate protection: EGF receptor tyrosine phosphorylation in COS1 cells expressing PTP1B forms (anti-pTyr Western blot); format: cell-based, Monkey; settings: COS1 cell lysates, anti-pTyr immunoblot (FIG. 4)

B1: PTP1B/D181A/Q262A, catalytic domain (residues 1 to 321) (enzyme, human, UniProt P18031 1-321, looked up)
chain: MEMEKEFEQIDKSGSWAAIYQDIRHEASDFPCRVAKLPKNKNRNRYRDVSPFDHSRIKLHQEDNDYINASLIKMEEAQRSYILTQGPLPNTCGHFWEMVWEQKSRGVVMLNRVMEKGSLKCAQYWPQKEEKEMIFEDTNLKLTLISEDIKSYYTVRQLELENLTTQETREILHFHYTTWPAFGVPESPASFLNFLFKVRESGSLSPEHGPVVVHCSAGIGRSGTFCLADTCLLLMDKRKDPSSVDIKKVLLEMRKFRMGLIATADQLRFSYLAVIEGAKFIMGDSSVQDQWKELSHEDLEPPPEHIPPPPRPPKRILEPHN
notes: range 1-321; Used in vitro (ITC, kinetics); also called PTP1B substrate-trapping double mutant
In the case of B1, the “affinity for EGFR in in vivo substrate-trapping experiments, versus PTP1B/D181A or PTP1B/C215S” value (EGF receptor [1]) is reported as “much higher affinity”, the “quantity of tyrosine-phosphorylated EGF receptor co-precipitated, fold greater than with D181A” value (EGF receptor [1]; EGF 20 ng/ml for 20 min, anti-HA immunoprecipitation (FIG. 5)) is reported as “more than 3 fold” and the “trapping of other tyrosine phosphorylated proteins (P160, P120, P70, P60)” value (EGF receptor [1]; anti-HA immunoprecipitation, not visible in D181A or C215S samples (FIG. 5)) is reported as “trapped several novel, less-abundant tyrosine phosphorylated proteins”. For the same molecule, the “fold higher substrate-binding affinity than PTP1B/C215S” value [2] was 28 fold, the “level of pTyr in the EGF receptor / enhancement of EGF receptor phosphorylation” value (EGF receptor [3]) was “most pronounced” and the “protection of phosphorylated EGF receptors, fold better than D181A” value (EGF receptor [3]) was “more than 3 fold”.
